The text below walks through data of paper PMC12216690, “MORC2 is a phosphorylation-dependent DNA compaction machine” (Nature Communications, 2024).

Data set [1] deals with the molecule itself. Put plainly: SEC-MALS; XBridge Protein BEH SEC column; 50 mM HEPES pH 8.0, 300 mM NaCl, 1 mM TCEP; 20 µl of protein at 1 mg/ml injected; no nucleotide. A general note: SEC sorts molecules by how far they enter the pores of the column.
Data set [2] concerns the molecule itself. Nature of the data set: atomic force microscopy; dry AFM, 10 nM MORC2 in 40 mM Tris pH 7.5, 50 mM NaCl, 1 mM MgCl2, 0.5 mM TCEP, with 1 mM ATP, with 1 mM AMP-PNP or without ATP, on poly-O-lysine treated mica; particle volumes fitted with two gaussians.
Data set [3] concerns the molecule itself. Put plainly: cryo-EM structure; 2 µM protein with AMP-PNP, with or without three-fold molar excess of 60 bp DNA; C2 symmetry imposed.
Data set [4] deals with the molecule itself. Nature of the data set: number and brightness analysis (fluorescence fluctuation spectroscopy); live MORC2 knockout HEK293T cells with low expression of MORC2-meGFP, nucleus, 37 degrees; without or with 0.5 µg/mL neocarzinostatin for 1 hour.

B1: full-length MORC2 (MORC2^WT) (natural protein, human, UniProt Q9Y6X9 1-1032, looked up)
chain: MAFTNYSSLNRAQLTFEYLHTNSTTHEFLFGALAELVDNARDADATRIDIYAERREDLRGGFMLCFLDDGAGMDPSDAASVIQFGKSAKRTPESTQIGQYGNGLKSGSMRIGKDFILFTKKEDTMTCLFLSRTFHEEEGIDEVIVPLPTWNARTREPVTDNVEKFAIETELIYKYSPFRTEEEVMTQFMKIPGDSGTLVIIFNLKLMDNGEPELDIISNPRDIQMAETSPEGTKPERRSFRAYAAVLYIDPRMRIFIHGHKVQTKRLSCCLYKPRMYKYTSSRFKTRAEQEVKKAEHVARIAEEKAREAESKARTLEVRLGGDLTRDSRVMLRQVQNRAITLRREADVKKRIKEAKQRALKEPKELNFVFGVNIEHRDLDGMFIYNCSRLIKMYEKVGPQLEGGMACGGVVGVVDVPYLVLEPTHNKQDFADAKEYRHLLRAMGEHLAQYWKDIAIAQRGIIKFWDEFGYLSANWNQPPSSELRYKRRRAMEIPTTIQCDLCLKWRTLPFQLSSVEKDYPDTWVCSMNPDPEQDRCEASEQKQKVPLGTFRKDMKTQEEKQKQLTEKIRQQQEKLEALQKTTPIRSQADLKKLPLEVTTRPSTEEPVRRPQRPRSPPLPAVIRNAPSRPPSLPTPRPASQPRKAPVISSTPKLPALAAREEASTSRLLQPPEAPRKPANTLVKTASRPAPLVQQLSPSLLPNSKSPREVPSPKVIKTPVVKKTESPIKLSPATPSRKRSVAVSDEEEVEEEAERRKERCKRGRFVVKEEKKDSNELSDSAGEEDSADLKRAQKDKGLHVEVRVNREWYTGRVTAVEVGKHVVRWKVKFDYVPTDTTPRDRWVEKGSEDVRLMKPPSPEHQSLDTQQEGGEEEVGPVAQQAIAVAEPSTSECLRIEPDTTALSTNHETIDLLVQILRNCLRYFLPPSFPISKKQLSAMNSDELISFPLKEYFKQYEVGLQNLCNSYQSRADSRAKASEESLRTSERKLRETEEKLQKLRTNIVALLQKVQEDIDINTDDELDAYIEDLITKGD
modifications: came phosphorylated from insect cells at multiple sites; top 6 hits S725, S730, S739, S743, S777, S779
notes: MORC2, human, UniProt Q9Y6X9, full length (1-1032); No cleavage of the tag is described; the SPR and single-molecule methods speak of StrepII-tagged MORC2; also called MORC2 WT (1-1032); MORC2^Apo; source: Sf9 insect cells, purified (Strep-Tactin, HiTrap Q, Superose 6 SEC)
Turning to B1, in data set [1], the stoichiometry N (usually the number of molecules, sites or subunits per partner or assembly) is 2.

B2: ATP-binding-deficient mutant MORC2 N39A (MORC2^N39A) (natural protein, human, UniProt Q9Y6X9 1-1032, looked up)
chain: MAFTNYSSLNRAQLTFEYLHTNSTTHEFLFGALAELVDAARDADATRIDIYAERREDLRGGFMLCFLDDGAGMDPSDAASVIQFGKSAKRTPESTQIGQYGNGLKSGSMRIGKDFILFTKKEDTMTCLFLSRTFHEEEGIDEVIVPLPTWNARTREPVTDNVEKFAIETELIYKYSPFRTEEEVMTQFMKIPGDSGTLVIIFNLKLMDNGEPELDIISNPRDIQMAETSPEGTKPERRSFRAYAAVLYIDPRMRIFIHGHKVQTKRLSCCLYKPRMYKYTSSRFKTRAEQEVKKAEHVARIAEEKAREAESKARTLEVRLGGDLTRDSRVMLRQVQNRAITLRREADVKKRIKEAKQRALKEPKELNFVFGVNIEHRDLDGMFIYNCSRLIKMYEKVGPQLEGGMACGGVVGVVDVPYLVLEPTHNKQDFADAKEYRHLLRAMGEHLAQYWKDIAIAQRGIIKFWDEFGYLSANWNQPPSSELRYKRRRAMEIPTTIQCDLCLKWRTLPFQLSSVEKDYPDTWVCSMNPDPEQDRCEASEQKQKVPLGTFRKDMKTQEEKQKQLTEKIRQQQEKLEALQKTTPIRSQADLKKLPLEVTTRPSTEEPVRRPQRPRSPPLPAVIRNAPSRPPSLPTPRPASQPRKAPVISSTPKLPALAAREEASTSRLLQPPEAPRKPANTLVKTASRPAPLVQQLSPSLLPNSKSPREVPSPKVIKTPVVKKTESPIKLSPATPSRKRSVAVSDEEEVEEEAERRKERCKRGRFVVKEEKKDSNELSDSAGEEDSADLKRAQKDKGLHVEVRVNREWYTGRVTAVEVGKHVVRWKVKFDYVPTDTTPRDRWVEKGSEDVRLMKPPSPEHQSLDTQQEGGEEEVGPVAQQAIAVAEPSTSECLRIEPDTTALSTNHETIDLLVQILRNCLRYFLPPSFPISKKQLSAMNSDELISFPLKEYFKQYEVGLQNLCNSYQSRADSRAKASEESLRTSERKLRETEEKLQKLRTNIVALLQKVQEDIDINTDDELDAYIEDLITKGD
notes: MORC2, human, UniProt Q9Y6X9, full length with N39A; also called N39A mutant; source: Sf9 insect cells, purified (Strep-Tactin, HiTrap Q, Superose 6 SEC)
Turning to B2, the binding result in data set [2] is recorded as “binds”.

B3: MORC2 phosphodead (MORC2^PD) mutant (natural protein, human, UniProt Q9Y6X9 1-1032, looked up)
chain: MAFTNYSSLNRAQLTFEYLHTNSTTHEFLFGALAELVDNARDADATRIDIYAERREDLRGGFMLCFLDDGAGMDPSDAASVIQFGKSAKRTPESTQIGQYGNGLKSGSMRIGKDFILFTKKEDTMTCLFLSRTFHEEEGIDEVIVPLPTWNARTREPVTDNVEKFAIETELIYKYSPFRTEEEVMTQFMKIPGDSGTLVIIFNLKLMDNGEPELDIISNPRDIQMAETSPEGTKPERRSFRAYAAVLYIDPRMRIFIHGHKVQTKRLSCCLYKPRMYKYTSSRFKTRAEQEVKKAEHVARIAEEKAREAESKARTLEVRLGGDLTRDSRVMLRQVQNRAITLRREADVKKRIKEAKQRALKEPKELNFVFGVNIEHRDLDGMFIYNCSRLIKMYEKVGPQLEGGMACGGVVGVVDVPYLVLEPTHNKQDFADAKEYRHLLRAMGEHLAQYWKDIAIAQRGIIKFWDEFGYLSANWNQPPSSELRYKRRRAMEIPTTIQCDLCLKWRTLPFQLSSVEKDYPDTWVCSMNPDPEQDRCEASEQKQKVPLGTFRKDMKTQEEKQKQLTEKIRQQQEKLEALQKTTPIRSQADLKKLPLEVTTRPSTEEPVRRPQRPRSPPLPAVIRNAPSRPPSLPTPRPASQPRKAPVISSTPKLPALAAREEASTSRLLQPPEAPRKPANTLVKTASRPAPLVQQLSPSLLPNSKSPREVPSPKVIKTPVVKKTEAPIKLAPATPSRKRAVAVADEEEVEEEAERRKERCKRGRFVVKEEKKDSNELADAAGEEDSADLKRAQKDKGLHVEVRVNREWYTGRVTAVEVGKHVVRWKVKFDYVPTDTTPRDRWVEKGSEDVRLMKPPSPEHQSLDTQQEGGEEEVGPVAQQAIAVAEPSTSECLRIEPDTTALSTNHETIDLLVQILRNCLRYFLPPSFPISKKQLSAMNSDELISFPLKEYFKQYEVGLQNLCNSYQSRADSRAKASEESLRTSERKLRETEEKLQKLRTNIVALLQKVQEDIDINTDDELDAYIEDLITKGD
notes: MORC2, human, UniProt Q9Y6X9, full length with six serine to alanine mutations in the CTD; Only the ATPase domain is modelled in the cryo-EM maps; also called MORC2^PD-DNA; source: Sf9 insect cells, purified (Strep-Tactin, HiTrap Q, Superose 6 SEC)
As for B3, the binding result in data set [3] was “binds”.

B4: monomeric eGFP (meGFP)-tagged MORC2 (natural protein, human, UniProt Q9Y6X9 1-1032, looked up)
chain: MAFTNYSSLNRAQLTFEYLHTNSTTHEFLFGALAELVDNARDADATRIDIYAERREDLRGGFMLCFLDDGAGMDPSDAASVIQFGKSAKRTPESTQIGQYGNGLKSGSMRIGKDFILFTKKEDTMTCLFLSRTFHEEEGIDEVIVPLPTWNARTREPVTDNVEKFAIETELIYKYSPFRTEEEVMTQFMKIPGDSGTLVIIFNLKLMDNGEPELDIISNPRDIQMAETSPEGTKPERRSFRAYAAVLYIDPRMRIFIHGHKVQTKRLSCCLYKPRMYKYTSSRFKTRAEQEVKKAEHVARIAEEKAREAESKARTLEVRLGGDLTRDSRVMLRQVQNRAITLRREADVKKRIKEAKQRALKEPKELNFVFGVNIEHRDLDGMFIYNCSRLIKMYEKVGPQLEGGMACGGVVGVVDVPYLVLEPTHNKQDFADAKEYRHLLRAMGEHLAQYWKDIAIAQRGIIKFWDEFGYLSANWNQPPSSELRYKRRRAMEIPTTIQCDLCLKWRTLPFQLSSVEKDYPDTWVCSMNPDPEQDRCEASEQKQKVPLGTFRKDMKTQEEKQKQLTEKIRQQQEKLEALQKTTPIRSQADLKKLPLEVTTRPSTEEPVRRPQRPRSPPLPAVIRNAPSRPPSLPTPRPASQPRKAPVISSTPKLPALAAREEASTSRLLQPPEAPRKPANTLVKTASRPAPLVQQLSPSLLPNSKSPREVPSPKVIKTPVVKKTESPIKLSPATPSRKRSVAVSDEEEVEEEAERRKERCKRGRFVVKEEKKDSNELSDSAGEEDSADLKRAQKDKGLHVEVRVNREWYTGRVTAVEVGKHVVRWKVKFDYVPTDTTPRDRWVEKGSEDVRLMKPPSPEHQSLDTQQEGGEEEVGPVAQQAIAVAEPSTSECLRIEPDTTALSTNHETIDLLVQILRNCLRYFLPPSFPISKKQLSAMNSDELISFPLKEYFKQYEVGLQNLCNSYQSRADSRAKASEESLRTSERKLRETEEKLQKLRTNIVALLQKVQEDIDINTDDELDAYIEDLITKGD
notes: MORC2, human, UniProt Q9Y6X9; Probably the full-length cDNA; also called MORC2-meGFP; pBacMam-MORC2-meGFP-StrepII; source: expressed in MORC2 knockout HEK293T cells, in live cells
Regarding B4, the “fold increase of dimers upon neocarzinostatin” value in data set [4] is roughly 2 fold.

B5: full-length MORC2 ATPase-dead mutant (MORC2^S87A) (natural protein, human, UniProt Q9Y6X9 1-1032, looked up)
chain: MAFTNYSSLNRAQLTFEYLHTNSTTHEFLFGALAELVDNARDADATRIDIYAERREDLRGGFMLCFLDDGAGMDPSDAASVIQFGKAAKRTPESTQIGQYGNGLKSGSMRIGKDFILFTKKEDTMTCLFLSRTFHEEEGIDEVIVPLPTWNARTREPVTDNVEKFAIETELIYKYSPFRTEEEVMTQFMKIPGDSGTLVIIFNLKLMDNGEPELDIISNPRDIQMAETSPEGTKPERRSFRAYAAVLYIDPRMRIFIHGHKVQTKRLSCCLYKPRMYKYTSSRFKTRAEQEVKKAEHVARIAEEKAREAESKARTLEVRLGGDLTRDSRVMLRQVQNRAITLRREADVKKRIKEAKQRALKEPKELNFVFGVNIEHRDLDGMFIYNCSRLIKMYEKVGPQLEGGMACGGVVGVVDVPYLVLEPTHNKQDFADAKEYRHLLRAMGEHLAQYWKDIAIAQRGIIKFWDEFGYLSANWNQPPSSELRYKRRRAMEIPTTIQCDLCLKWRTLPFQLSSVEKDYPDTWVCSMNPDPEQDRCEASEQKQKVPLGTFRKDMKTQEEKQKQLTEKIRQQQEKLEALQKTTPIRSQADLKKLPLEVTTRPSTEEPVRRPQRPRSPPLPAVIRNAPSRPPSLPTPRPASQPRKAPVISSTPKLPALAAREEASTSRLLQPPEAPRKPANTLVKTASRPAPLVQQLSPSLLPNSKSPREVPSPKVIKTPVVKKTESPIKLSPATPSRKRSVAVSDEEEVEEEAERRKERCKRGRFVVKEEKKDSNELSDSAGEEDSADLKRAQKDKGLHVEVRVNREWYTGRVTAVEVGKHVVRWKVKFDYVPTDTTPRDRWVEKGSEDVRLMKPPSPEHQSLDTQQEGGEEEVGPVAQQAIAVAEPSTSECLRIEPDTTALSTNHETIDLLVQILRNCLRYFLPPSFPISKKQLSAMNSDELISFPLKEYFKQYEVGLQNLCNSYQSRADSRAKASEESLRTSERKLRETEEKLQKLRTNIVALLQKVQEDIDINTDDELDAYIEDLITKGD
notes: MORC2, human, UniProt Q9Y6X9, full length with S87A; Only the ATPase domain is modelled in the cryo-EM map; also called S87A mutant; source: Sf9 insect cells, purified (Strep-Tactin, HiTrap Q, Superose 6 SEC)
Turning to B5, the binding result in data set [3] is given as “binds”.
